Where a name gives a salt, the structure may show the parent alone.
Experiments:
[1] = system: patients with relapsed, refractory, or de novo AML; assay: Phase 1/2 study combining gemtuzumab ozogamicin with cytarabine and daunorubicin (Example 1); details: in the triple combination
Experimental: The maximum tolerated dose was determined to be cytarabine 100 mg/m^2/day by continuous infusion on days 1 through 7, daunorubicin 45 mg/m^2 by intravenous bolus on days 1 through 3, and gemtuzumab ozogamicin 6 mg/m^2 by 2-hour infusion on day 4.
A detailed safety and efficacy evaluation was performed on the first 19 patients treated with this combination induction regimen and subsequently followed for at least 28 days. There were sixteen men and three women enrolled with a median age of 46 years (range, 20 to 60). One, ten, and three patients were categorized in favorable-, intermediate- and poor-risk cytogenetic groups, respectively. Cytogenetic analysis was not available for five patients.

[2] = system: adult acute nonlymphocytic leukemia; details: used as a single agent; cited from earlier work
AML patients = assay: UK safety study combining gemtuzumab ozogamicin with intensive chemotherapy before the MRC AML15 trial (Example 2); assay type: in vivo, human
Experimental: The feasibility of combining gemtuzumab ozogamicin with intensive chemotherapy for induction and/or consolidation was evaluated in 67 patients in a safety study in the United Kingdom prior to the start of the Medical Research […] AML15 trial. The aim was to combine gemtuzumab ozogamicin with chemotherapy planned in the trial, (DAT; Daunorubicin, AraC, Thioguanine, or DA; Daunorubicin AraC; or FLAG-IDA; Fludarabine, AraC, G-CSF, Idarubicin) as course 1. Course 1 was given using gemtuzumab ozogamicin in an amount of 3 mg/m^2 on day 1 of chemotherapy in 55 patients. Thirty-three patients received gemtuzumab ozogamicin with DAT. Eight patients received gemtuzumab ozogamicin with DA. Fourteen patients received gemtuzumab ozogamicin with FLAG-Ida. Of the 55 patients treated, 41 […] entered complete remission with course 1 broken down as follows: […] DAT=26/32; (2) DA=7/8; and (3) FLAG-Ida=8/8. Prior experience in a separate trial designated MRC AML12 where 720 patients were treated with H-DAT alone in course 1, 64% of those patients achieved complete remission. In the present study, the median time to ANC recovery (1×10^9/l) was 27 days (range 9-54) and platelets >100×10^9/l was 30 (range 21-48) which is within the mean+ISD of the 720 patients treated with H-DAT alone in the MRC AML12 trial. Non-hemopoietic toxicity was confined to the liver. Overall the maximum toxicity was Grade 1=5 patients, Grade 2=22 patients, Grade 3=13 patients and Grade 4=10 patients. Of the Grade 3 and 4 toxicities, 7 were felt to be definitely associated with gemtuzumab ozogamicin therapy. A possible contributory factor was the inclusion of Thioguanine. Of the 39 recipients where Thioguanine was included in the schedules, 22 developed Grade 3 or 4 liver toxicity compared with 1 for 16 recipients of non-Thioguanine schedules. […]
The overall survival of all patients receiving gemtuzumab ozogamicin in a dose of 3 mg/m^2 with course 1 at 6 months is 73% and at 12 months is 68%. For the patient receiving non-Thioguanine induction with 3 mg/m^2 of gemtuzumab ozogamicin, the 6 month survival is 91%.

patients with AML = details: cited from earlier work
[3] = system: patients with poor prognosis AML; details: refractory AML; single dose GO 9 mg/m^2 three days prior to first pulse of chemotherapy; cited from earlier work
[4] = system: AML patients <60 years of age; details: cited from earlier work
[5] = GO 3 mg/m^2 with course 1 chemotherapy
[6] = all patients receiving GO 3 mg/m^2 with course 1

Compound `Nc1ccn([C@@H]2O[C@H](CO)[C@@H](O)[C@@H]2O)c(=O)n1` [cytarabine, 4-amino-1-(beta)-D-arabinofuranosyl-2(1H)-pyrimidinone] has a maximum tolerated dose ([1]; continuous infusion days 1 through 7) of 100 mg/m^2/day.
For `COc1cccc2c1C(=O)c1c(O)c3c(c(O)c1C2=O)C[C@@](O)(C(C)=O)C[C@@H]3O[C@H]1C[C@H](N)[C@H](O)[C@H](C)O1` [daunorubicin hydrochloride, (1 S,3 S)-3-Acetyl-1,2,3,4,6,11-hexahydro-3,5,12-trihydroxy-10-methoxy-6,11-dioxo-1-naphthacenyl 3-amino-2,3,6-trideoxy-(alpha)-L-lyxo-hexopyranoside hydrochloride], the complete remission rates [2] is given as 40 to 50%.
Work on `COc1cccc2c1C(=O)c1c(O)c3c(c(O)c1C2=O)C[C@@](O)(C(C)=O)C[C@@H]3O[C@H]1C[C@H](N)[C@H](O)[C@H](C)O1` [daunorubicin, (8S-cis)-8-acetyl-10-[(3-amino-2,3,6-trideoxy-(alpha)-L-lyxo-hexopyranosyl)oxy]-7,8,9,10-tetrahydro-6,8,11-trihydroxy-1-methoxy-5,12-naphthacenedione hydrochloride] yielded a maximum tolerated dose ([1]; intravenous bolus days 1 through 3) of 45 mg/m^2.
In the case of “gemtuzumab ozogamicin: recombinant humanized IgG4, kappa anti-CD33 antibody conjugated with N-acetyl-gamma calicheamicin via a bifunctional linker”, the feasibility (AML patients; GO 3 mg/m^2 in course 1 and GO 3 mg/m^2 in course 3, twelve patients) is reported as “appears to be feasible”, the “complete remission with course 1” value (AML patients; GO 3 mg/m^2 on day 1 of chemotherapy (DAT, DA or FLAG-Ida), 41 of 55 patients treated) is reported as 85% and the “Grade 3 and 4 toxicities felt to be definitely associated with gemtuzumab ozogamicin therapy” value (AML patients; [5]) is reported as 7. For the same compound, the “maximum liver toxicity Grade 1” value (AML patients; [5]) was 5 patients, the “maximum liver toxicity Grade 2” value (AML patients; [5]) was 22 patients and the “maximum liver toxicity Grade 3” value (AML patients; [5]) was 13 patients. For the same compound, the “maximum liver toxicity Grade 4” value (AML patients; [5]) was 10 patients, the “median time to ANC recovery (1×10^9/l)” value (AML patients; GO 3 mg/m^2 with course 1 chemotherapy, range 9-54) was 27 days and the “median time to platelets >100×10^9/l” value (AML patients; GO 3 mg/m^2 with course 1 chemotherapy, range 21-48) was 30 days. For the same compound, the “recipients developing Grade 3 or 4 liver toxicity” value (AML patients; Thioguanine included in the schedules, 39 recipients) was 22, the “overall survival at 6 months” value (AML patients; [6]) was 73% and the “overall survival at 12 months” value (AML patients; [6]) was 68%. The 6 month survival (AML patients; non-Thioguanine induction with GO 3 mg/m^2) was 91%, the “recipients developing Grade 3 or 4 liver toxicity” value (AML patients; non-Thioguanine schedules, 16 recipients) was 1 and the “increased risk of developing significant hepatotoxicity” value (patients with AML; patients who did not undergo stem cell transplantation) was no more than 10%. For the same compound, the response rate (patients with AML; patients with relapsed AML) was less than 40%, the “patients entering complete remission” value [3] was “two of four” and the liver toxicity ([4]; GO 6 mg/m^2 dose with H-DAT or S-DAT) was “increased liver toxicity”. For the same compound, the “toxicity in patients receiving GO in courses 1 and 2” value ([4]; with H-DAT or S-DAT induction, one patient died) was “delayed hematological recovery and VOD” and the maximum tolerated dose ([1]; 2-hour infusion on day 4) was 6 mg/m^2.

From patent US7727968B2, “Combination therapy for the treatment of acute leukemia and myelodysplastic syndrome” (priority 2002, dated 2010)
